The target in data set [1] is XloA (Thermotoga maritima, UniProt Q9WXT1). Description: p-nitrophenol release at […] nm. Type of data set: biochemical. The conditions noted are these: data not shown; auxiliary enzyme.
Substrate in data set [2]: CCC(=O)Oc1ccc([N+](=O)[O-])cc1
As to the kind of experiment: purified protein. The format is biochemical, Thermotoga maritima. The conditions noted are these: 50 mM citrate-phosphate pH 6, 70 °C (standard assay).

Substrate in data set [3]: CC(=O)Oc1ccc([N+](=O)[O-])cc1
Description: purified protein. The note with it: 50 mM citrate-phosphate pH 6, 70 °C (standard assay). Type of data set: biochemical, Thermotoga maritima.

Substrate in data set [4]: CC(=O)O[C@@H]1[C@@H](O)[C@H](Oc2ccc([N+](=O)[O-])cc2)OC[C@H]1O
As to the kind of experiment: purified protein. The format is biochemical, Thermotoga maritima. The conditions noted are these: 0.1 M sodium phosphate pH 7, 60 °C, excess XloA.

Substrate in data set [5]: CC(=O)O[C@@H]1CO[C@@H](Oc2ccc([N+](=O)[O-])cc2)[C@H](O)[C@H]1O
Description: purified protein. Type of data set: biochemical, Thermotoga maritima. The conditions noted are these: 0.1 M sodium phosphate pH 7, 60 °C, excess XloA.

Substrate in data set [6]: CC(=O)O[C@H]1[C@H](Oc2ccc([N+](=O)[O-])cc2)OC[C@@H](O)[C@@H]1O
As to the kind of experiment: purified protein. The format is biochemical, Thermotoga maritima. The note with it: 0.1 M sodium phosphate pH 7, 60 °C, excess XloA.

Data set [7] concerns the molecule itself. Description: crystal structure.
Data set [8] deals with the molecule itself. Description: crystal structure. This is another data set of the same source.

Like-named read-outs stand apart in the source and are kept apart here.

From article PMC3348966 (Proteins, 2012) come the findings set out here.

On to `O=[N+]([O-])c1ccc(O[C@@H]2OC[C@@H](O)[C@H](O)[C@H]2O)cc1` [4-nitrophenyl β-D-xylopyranoside], for which, in data set [1], the “p-nitrophenol release at 405 nm” value is given as “its activity was confirmed by measuring release of p-nitrophenol from the substrate pNP-Xyl”.

B1: TM0077 (Thermotoga maritima MSB8) (protein)
chain: MAFFDLPLEELKKYRPERYEEKDFDEFWEETLAESEKFPLDPVFERMESHLKTVEAYDVTFSGYRGQRIKGWLLVPKLEEEKLPCVVQYIGYNGGRGFPHDWLFWPSMGYICFVMDTRGQGSGWLKGDTPDYPEGPVDPQYPGFMTRGILDPRTYYYRRVFTDAVRAVEAAASFPQVDQERIVIAGGSQGGGIALAVSALSKKAKALLCDVPFLCHFRRAVQLVDTHPYAEITNFLKTHRDKEEIVFRTLSYFDGVNFAARAKIPALFSVGLMDNICPPSTVFAAYNYYAGPKEIRIYPYNNHEGGGSFQAVEQVKFLKKLFEKG
As to B1, the Km came out at 0.137 ± 0.013 mM in data set [2]; 0.185 ± 0.026 mM in data set [3]; 4.2 ± 0.4 mM in data set [4]; 4.0 ± 0.1 mM in data set [5]; 3.6 ± 0.5 mM in data set [6]. In addition, the kcat in data set [2] was determined as 41.3 ± 1.1 s⁻¹; in data set [3], 57.5 ± 2.2 s⁻¹; in data set [4], 70.1 ± 7.7 s⁻¹; in data set [5] it was 78.6 ± 12.9 s⁻¹; in data set [6], 76.1 ± 19.2 s⁻¹. Besides, the kcat/Km in data set [2] came out at 302000 ± 29700 M⁻¹ s⁻¹; in data set [3] it was 311000 ± 45300 M⁻¹ s⁻¹; in data set [4], 16700 ± 2400 M⁻¹ s⁻¹; in data set [5] it was 19700 ± 3300 M⁻¹ s⁻¹; in data set [6], 21100 ± 6100 M⁻¹ s⁻¹.

B2: selenomethionine-substituted TM0077 (acetyl esterase from Thermotoga maritima) (enzyme, UniProt Q9WXT2 1-325, looked up)
chain: MAFFDLPLEELKKYRPERYEEKDFDEFWEETLAESEKFPLDPVFERMESHLKTVEAYDVTFSGYRGQRIKGWLLVPKLEEEKLPCVVQYIGYNGGRGFPHDWLFWPSMGYICFVMDTRGQGSGWLKGDTPDYPEGPVDPQYPGFMTRGILDPRTYYYRRVFTDAVRAVEAAASFPQVDQERIVIAGGSQGGGIALAVSALSKKAKALLCDVPFLCHFRRAVQLVDTHPYAEITNFLKTHRDKEEIVFRTLSYFDGVNFAARAKIPALFSVGLMDNICPPSTVFAAYNYYAGPKEIRIYPYNNHEGGGSFQAVEQVKFLKKLFEKG
modifications: selenomethionine-substituted (selenomethionine in place of methionine)
On to B2, for which the “stoichiometry N” value in data set [7] worked out at 6.

B3: native TM0077 (acetyl esterase from Thermotoga maritima) (enzyme, UniProt Q9WXT2 1-325, looked up)
chain: MAFFDLPLEELKKYRPERYEEKDFDEFWEETLAESEKFPLDPVFERMESHLKTVEAYDVTFSGYRGQRIKGWLLVPKLEEEKLPCVVQYIGYNGGRGFPHDWLFWPSMGYICFVMDTRGQGSGWLKGDTPDYPEGPVDPQYPGFMTRGILDPRTYYYRRVFTDAVRAVEAAASFPQVDQERIVIAGGSQGGGIALAVSALSKKAKALLCDVPFLCHFRRAVQLVDTHPYAEITNFLKTHRDKEEIVFRTLSYFDGVNFAARAKIPALFSVGLMDNICPPSTVFAAYNYYAGPKEIRIYPYNNHEGGGSFQAVEQVKFLKKLFEKG
With B3, in data set [8], the “stoichiometry N” value amounted to 6.

B4: TM0077-paraoxon complex (TM0077 with DEP-modified Ser188) (enzyme, Thermotoga maritima, UniProt Q9WXT2 1-325, looked up)
chain: MAFFDLPLEELKKYRPERYEEKDFDEFWEETLAESEKFPLDPVFERMESHLKTVEAYDVTFSGYRGQRIKGWLLVPKLEEEKLPCVVQYIGYNGGRGFPHDWLFWPSMGYICFVMDTRGQGSGWLKGDTPDYPEGPVDPQYPGFMTRGILDPRTYYYRRVFTDAVRAVEAAASFPQVDQERIVIAGGSQGGGIALAVSALSKKAKALLCDVPFLCHFRRAVQLVDTHPYAEITNFLKTHRDKEEIVFRTLSYFDGVNFAARAKIPALFSVGLMDNICPPSTVFAAYNYYAGPKEIRIYPYNNHEGGGSFQAVEQVKFLKKLFEKG
modifications: diethyl-phosphate (DEP) moiety covalently bound to the Oγ atom of Ser188
On to B4, for which, in data set [8], the “stoichiometry N” value was found to be 6.

B5: TM0077-PMSF complex (TM0077 with PMS-modified Ser188) (enzyme, Thermotoga maritima, UniProt Q9WXT2 1-325, looked up)
chain: MAFFDLPLEELKKYRPERYEEKDFDEFWEETLAESEKFPLDPVFERMESHLKTVEAYDVTFSGYRGQRIKGWLLVPKLEEEKLPCVVQYIGYNGGRGFPHDWLFWPSMGYICFVMDTRGQGSGWLKGDTPDYPEGPVDPQYPGFMTRGILDPRTYYYRRVFTDAVRAVEAAASFPQVDQERIVIAGGSQGGGIALAVSALSKKAKALLCDVPFLCHFRRAVQLVDTHPYAEITNFLKTHRDKEEIVFRTLSYFDGVNFAARAKIPALFSVGLMDNICPPSTVFAAYNYYAGPKEIRIYPYNNHEGGGSFQAVEQVKFLKKLFEKG
modifications: phenylmethyl sulfonyl (PMS) moiety covalently bound to the Oγ atom of Ser188
For B5, the “stoichiometry N” value in data set [8] worked out at 6.

What is called Km is the substrate concentration at which the rate is half of its maximum. For orientation: kcat means the number of substrate molecules converted per active site and unit of time at saturation. A word on the kcat/Km: it is the second-order rate constant that governs catalysis at low substrate concentration. As usually defined, the stoichiometry N is the number of molecules, sites or subunits per partner or assembly.
